Measured values reported in IntAct's records for PubMed 16525419.

B1: Nephrin (Homo sapiens), O60500 (parent)
chain: MALGTTLRASLLLLGLLTEGLAQLAIPASVPRGFWALPENLTVVEGASVELRCGVSTPGSAVQWAKDGLLLGPDPRIPGFPRYRLEGDPARGEFHLHIEACDLSDDAEYECQVGRSEMGPELVSPRVILSILVPPKLLLLTPEAGTMVTWVAGQEYVVNCVSGDAKPAPDITILLSGQTISDISANVNEGSQQKLFTVEATARVTPRSSDNRQLLVCEASSPALEAPIKASFTVNVLFPPGPPVIEWPGLDEGHVRAGQSLELPCVARGGNPLATLQWLKNGQPVSTAWGTEHTQAVARSVLVMTVRPEDHGAQLSCEAHNSVSAGTQEHGITLQVTFPPSAIIILGSASQTENKNVTLSCVSKSSRPRVLLRWWLGWRQLLPMEETVMDGLHGGHISMSNLTFLARREDNGLTLTCEAFSEAFTKETFKKSLILNVKYPAQKLWIEGPPEGQKLRAGTRVRLVCLAIGGNPEPSLMWYKDSRTVTESRLPQESRRVHLGSVEKSGSTFSRELVLVTGPSDNQAKFTCKAGQLSASTQLAVQFPPTNVTILANASALRPGDALNLTCVSVSSNPPVNLSWDKEGERLEGVAAPPRRAPFKGSAAARSVLLQVSSRDHGQRVTCRAHSAELRETVSSFYRLNVLYRPEFLGEQVLVVTAVEQGEALLPVSVSANPAPEAFNWTFRGYRLSPAGGPRHRILSSGALHLWNVTRADDGLYQLHCQNSEGTAEARLRLDVHYAPTIRALQDPTEVNVGGSVDIVCTVDANPILPGMFNWERLGEDEEDQSLDDMEKISRGPTGRLRIHHAKLAQAGAYQCIVDNGVAPPARRLLRLVVRFAPQVEHPTPLTKVAAAGDSTSSATLHCRARGVPNIVFTWTKNGVPLDLQDPRYTEHTYHQGGVHSSLLTIANVSAAQDYALFTCTATNALGSDQTNIQLVSISRPDPPSGLKVVSLTPHSVGLEWKPGFDGGLPQRFCIRYEALGTPGFHYVDVVPPQATTFTLTGLQPSTRYRVWLLASNALGDSGLADKGTQLPITTPGLHQPSGEPEDQLPTEPPSGPSGLPLLPVLFALGGLLLLSNASCVGGVLWQRRLRRLAEGISEKTEAGSEEDRVRNEYEESQWTGERDTQSSTVSTTEAEPYYRSLRDFSPQLPPTQEEVSYSRGFTGEDEDMAFPGHLYDEVERTYPPSGAWGPLYDEVQMGPWDLHWPEDTYQDPRGIYDQVAGDLDTLEPDSLPFELRGHLV

Columns and labels:
[1] = variants of: B1; conditions: with nck1_human NCK1, P16333
[2] = variants of: B1; conditions: with nck2_human NCK2, O43639
[3] = variants of: B1; conditions: with wasp_mouse Was
[4] = variants of: B1; conditions: with nck2_human NCK2, O43639; remark: listed apart in the source

nck2_human NCK2, O43639, sequence (O43639 whole entry): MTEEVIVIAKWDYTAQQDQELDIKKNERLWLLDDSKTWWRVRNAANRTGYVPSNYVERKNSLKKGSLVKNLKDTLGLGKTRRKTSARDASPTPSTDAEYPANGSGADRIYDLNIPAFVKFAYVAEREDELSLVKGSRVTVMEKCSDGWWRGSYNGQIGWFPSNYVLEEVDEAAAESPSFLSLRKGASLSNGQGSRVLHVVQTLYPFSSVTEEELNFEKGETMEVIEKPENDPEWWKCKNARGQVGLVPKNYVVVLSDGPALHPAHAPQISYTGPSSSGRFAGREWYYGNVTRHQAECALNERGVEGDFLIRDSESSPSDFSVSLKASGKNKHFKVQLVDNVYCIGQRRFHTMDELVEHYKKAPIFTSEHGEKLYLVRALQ

effect of a mutation on the interaction [1] | effect of a mutation on the interaction [2] | effect of a mutation on the interaction [3] | effect of a mutation on the interaction [4] | Variant
decreasing interaction | disrupting interaction | disrupting interaction | disrupting interaction | Y1176F;Y1193F;Y1217F
decreasing interaction | – | – | – | Y1193F;Y1217F
decreasing interaction | – | – | – | Y1176F;Y1217F
